This is an account of results in paper PMC4778132, “CC chemokine receptor 10 cell surface presentation in melanocytes is regulated by the novel interaction partner S100A10” (Scientific Reports, 2016).

Experiment [1] deals with T1, recombinant HIS-tagged human S100A10 (wild type) (human, UniProt P60903 1-97).
T1 construct: human S100A10, cDNA in pET28a(+); also called HIS-S100A10; S100A10 wt; source: E. coli BL21(DE3)pLysS, purified (Ni-NTA); not shown: poly-histidine (HIS), N-terminal, kept
In words: SPR; Biacore 3000; GST-CCR10 CT amine-coupled on a CM5 chip; six concentrations of HIS-tagged S100A10 derivative injected; HBS-P buffer (10 mM Hepes pH 7.4, 150 mM NaCl, 0.005% Tween-20), 25 °C; binding to GST alone subtracted; single binding site model, KD by the Scatchard equation. The settings on record: both partners purified.

For experiment [2], the target named is T1, recombinant HIS-tagged human S100A10 …. As to the kind of experiment: pull-down; GST fusion proteins (50 μg) on glutathione sepharose beads incubated with purified protein (10 μg), 2 hours at 4 °C, IP buffer (20 mM Tris-HCl pH 7.5, 25 mM NaCl, 10 mM NaF, 1 mM EDTA, 0.1% Triton-X 100); immunoblot. To be noted: both partners purified. For orientation: Immunoblotting shows a protein as a band on a membrane.

T1 sequence (P60903 whole entry): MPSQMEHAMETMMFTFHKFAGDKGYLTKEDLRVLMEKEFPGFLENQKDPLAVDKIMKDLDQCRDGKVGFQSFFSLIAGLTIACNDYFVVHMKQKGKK

B1: GST-CCR10 CT (C-terminal cytoplasmic tail of human CCR10 fused to GST) (domain or fragment, UniProt P46092 314-362, looked up)
chain: GLRFRQDLRRLLRGGSCPSGPQPRRGCPRRPRLSSCSAPTETHSLSWDN
notes: C-terminal cytosolic tail of human CCR10, amino acid residues 314-362 (methods); the results print 314-369; Cloned in pGex-4T-1; Results print 314-369, methods 314-362; also called CCR10 CT_(314–369); pGex-CCR10CT_(314–362)
For B1, in experiment [1], the Kd (commonly a measure of binding affinity in units of concentration) is approximately 1000 nM.

B2: GST-CCR10 CT truncation mutant T1 (domain or fragment, human, UniProt P46092 314-339, looked up)
chain: GLRFRQDLRRLLRGGSCPSGPQPRRG
notes: C-terminal tail of human CCR10, amino acid residues 314-339 (stop codon inserted into pGex-CCR10CT); also called T1 mutant
As to B2, in experiment [2], the binding result is recorded as “binds”.
